# Assay results taken from US20230391876A1 (HANALL BIOPHARMA, published 2023).
# Columns and labels:
# [1] = target: T1, shFcRn (soluble human FcRn) (human, UniProt P55899 24-297; P61769 21-119); experiment: SPR, hFcRn immobilized on chip, pH 7.4
# T1 construct: extracellular domain; Printed only as 'soluble human FcRn'; also called hFcRn (immobilized on a chip)
# Procedure: (§1) Kinetic analysis was performed using a 1:1 Langmuir binding model, and the average KD value was obtained by repeating the analysis 6 times in each condition of pH 6.0 and pH 7.4.
# (§2) Chip activation was performed under EDAC/NHS 0.5×, 30 μL/min, and 300 sec conditions. Thereafter, shFcRn was prepared at 2 μg/mL, 250 μL using an acetate buffer (pH 5.5), and immobilization was performed while flowing at 30 μL/min. The reaction was stopped when the immobilization level corresponded to 200 RU to 300 RU. Thereafter, deactivation was performed using ethanolamine at 30 μL/min, 300 sec. […] Sample dilution was performed using 1×PBST (pH 7.4) or 1×PBST (pH 6.0) buffer depending on the analysis pH. In the sample analysis conditions, association was carried out by reaction at 50 μL/min, 200 sec, and dissociation was carried out by reaction at 50 μL/min, 600 sec. Thereafter, reaction was carried out using a glycine buffer (pH 2.0) at 100 μL/min, 18 sec to perform regeneration. For kinetic analysis, samples were prepared and reacted once in three cells to which shFcRn was immobilized. Then three kinetic values were obtained, and then an average KD value was measured. When analyzing reaction signals, interspot-referencing and signals in which only buffer was analyzed were used for a double-referencing.
# [2] = target: T2, hFcRn on hFcRn-expressing HEK293 cells (human, UniProt P55899 24-365; P61769 21-119); experiment: FACS on hFcRn HEK293 cells, 10 nM antibody, pH 6.0
# T2 construct: whole, on cells; also called hFcRn HEK293
# Procedure: (§3) The analysis of hFcRn binding using FACS was carried out under two conditions of pH 6.0 and pH 7.4. hFcRn-expressing 1TEK293 (hFcRn HEK293) cells were diluted with the reaction buffer (0.0500 BSA in PBS, pH 6.0 or pH 7.4) and prepared in duplicate in a 96 well plate at 1×10⁵ cells for each sample. In addition, each antibody sample was diluted with the reaction buffer to 10 nM, and then put into a 96 well plate, and incubated at 4° C. for 90 minutes. Thereafter, the plate was centrifuged to remove the supernatant, and then Alexa488-goat anti-hIgG Ab (1:200) was added thereto, and again incubated at 4° C. for 90 minutes. After the reaction was completed, it was centrifuged to remove the supernatant, and 200 μL of the reaction buffer was added to resuspend the cell pellet, and then the MFI value was measured in a FACS instrument.
# [3] = target: T2, hFcRn on hFcRn-expressing HEK293 cells; experiment: FACS on hFcRn HEK293 cells, 10 nM antibody, pH 7.4
# Procedure: as §3
# [4] = target: T1, shFcRn (soluble human FcRn); experiment: SPR, shFcRn immobilized on chip, antibody as analyte, pH 6.0;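 also: kinetics fitted with a 1:1 Langmuir model, association 200 s and dissociation 600 s, samples diluted in PBST, double-referenced signals, values averaged across three shFcRn-coated cells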
# Procedure: as §1, §2
# [5] = target: T1, shFcRn (soluble human FcRn); experiment: SPR, shFcRn immobilized on chip, antibody as analyte, pH 7.4;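 also: kinetics fitted with a 1:1 Langmuir model, association 200 s and dissociation 600 s in PBST, double-referenced against buffer-only and interspot signals, values averaged over repeated runs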
# Procedure: as §1, §2
# [6] = target: T2, hFcRn on hFcRn-expressing HEK293 cells; experiment: FACS on hFcRn HEK293 cells, pH 6.0; head prints 'FACS binding (EC50, nM)', taken as blocking of competitor Alexa488-hIgG1 (Example 4.5)
# Procedure: 1×10⁷ hFcRn HEK293 cells were seeded into a T75 flask and cultured for 24 hours. After culturing, the cells were removed and placed in a 96 well plate at 1×10⁵ cells for each sample in duplicate. […] After the reaction was completed, it was centrifuged to remove the supernatant. 200 μL of the reaction buffer was added to resuspend the cell pellet, and then the MFI value was measured in a FACS instrument.
# [7] = target: T1, shFcRn (soluble human FcRn); experiment: SPR, hFcRn immobilized on chip, pH 6.0
# Procedure: as §1, §2
Kd [1],MFI [2],MFI [3],Kd [4],Kd [5],EC50 [6],Kd [7],koff [4],kon [4],koff [5],kon [5],Binder
0.21 nM,2440 MFI,6240 MFI,0.145 nM,0.199 nM,1.4 nM,,,,,,"HL161AN variant No. 3 (LC:N25S, HC:Q82S) (antibody, human IgG1, V domains shown, Variable domains only) VL: SYVLTQPPSVSVAPGQTARITCGGSNIGSTSVHWYQQKPGQAPVLVVHDDSDRPSGIPERFSGSNSGNTATLTISRVEAGDEADYYCQVRDSSSDHVIFGGGTKLTVLGQPKAAPSVTL VH: EVQLLESGGGLVQPGGSLRLSCAASEFTFGSCVMTWVRQAPGKGLEWVSVISGSGGSTYYADSVKGRFTISRDNSKNTLYLSMNSLRAEDTAVYYCAKTPWWLRSPFFDYWGQGTLVTVSS"
0.33 nM,2520 MFI,6910 MFI,0.198 nM,0.226 nM,1.15 nM,0.25 nM,0.000562 s⁻¹,2.84e+06 M⁻¹ s⁻¹,0.000542 s⁻¹,2.39e+06 M⁻¹ s⁻¹,"HL161AN variant No. 18 (LC:N25Q, HC:C32S Q82T) (antibody, human IgG1, V domains shown, Variable domains only) VL: SYVLTQPPSVSVAPGQTARITCGGQNIGSTSVHWYQQKPGQAPVLVVHDDSDRPSGIPERFSGSNSGNTATLTISRVEAGDEADYYCQVRDSSSDHVIFGGGTKLTVLGQPKAAPSVTL VH: EVQLLESGGGLVQPGGSLRLSCAASEFTFGSSVMTWVRQAPGKGLEWVSVISGSGGSTYYADSVKGRFTISRDNSKNTLYLTMNSLRAEDTAVYYCAKTPWWLRSPFFDYWGQGTLVTVSS"
0.35 nM,2520 MFI,5840 MFI,0.2 nM,0.283 nM,1.16 nM,0.17 nM,0.000509 s⁻¹,2.54e+06 M⁻¹ s⁻¹,0.00056 s⁻¹,1.98e+06 M⁻¹ s⁻¹,"HL161AN variant No. 20 (LC:N25Q, HC:C32Y Q82S) (antibody, human IgG1, V domains shown, Variable domains only) VL: SYVLTQPPSVSVAPGQTARITCGGQNIGSTSVHWYQQKPGQAPVLVVHDDSDRPSGIPERFSGSNSGNTATLTISRVEAGDEADYYCQVRDSSSDHVIFGGGTKLTVLGQPKAAPSVTL VH: EVQLLESGGGLVQPGGSLRLSCAASEFTFGSYVMTWVRQAPGKGLEWVSVISGSGGSTYYADSVKGRFTISRDNSKNTLYLSMNSLRAEDTAVYYCAKTPWWLRSPFFDYWGQGTLVTVSS"
0.67 nM,2570 MFI,6350 MFI,0.229 nM,0.637 nM,1.46 nM,0.16 nM,0.000563 s⁻¹,2.46e+06 M⁻¹ s⁻¹,0.000743 s⁻¹,1.17e+06 M⁻¹ s⁻¹,"HL161AN variant No. 5 (LC:N25S, HC:Q82E) (antibody, human IgG1, V domains shown, Variable domains only) VL: SYVLTQPPSVSVAPGQTARITCGGSNIGSTSVHWYQQKPGQAPVLVVHDDSDRPSGIPERFSGSNSGNTATLTISRVEAGDEADYYCQVRDSSSDHVIFGGGTKLTVLGQPKAAPSVTL VH: EVQLLESGGGLVQPGGSLRLSCAASEFTFGSCVMTWVRQAPGKGLEWVSVISGSGGSTYYADSVKGRFTISRDNSKNTLYLEMNSLRAEDTAVYYCAKTPWWLRSPFFDYWGQGTLVTVSS"
0.35 nM,2590 MFI,6490 MFI,0.208 nM,0.283 nM,1.29 nM,0.2 nM,0.000558 s⁻¹,2.68e+06 M⁻¹ s⁻¹,0.000551 s⁻¹,1.95e+06 M⁻¹ s⁻¹,"HL161AN variant No. 14 (LC:N25Q, HC:Q82S) (antibody, human IgG1, V domains shown, Variable domains only) VL: SYVLTQPPSVSVAPGQTARITCGGQNIGSTSVHWYQQKPGQAPVLVVHDDSDRPSGIPERFSGSNSGNTATLTISRVEAGDEADYYCQVRDSSSDHVIFGGGTKLTVLGQPKAAPSVTL VH: EVQLLESGGGLVQPGGSLRLSCAASEFTFGSCVMTWVRQAPGKGLEWVSVISGSGGSTYYADSVKGRFTISRDNSKNTLYLSMNSLRAEDTAVYYCAKTPWWLRSPFFDYWGQGTLVTVSS"
0.36 nM,2580 MFI,6660 MFI,0.205 nM,0.256 nM,1.37 nM,0.15 nM,0.000573 s⁻¹,2.8e+06 M⁻¹ s⁻¹,0.000494 s⁻¹,1.93e+06 M⁻¹ s⁻¹,"HL161AN variant No. 10 (LC:N25S, HC:C32Y Q82T) (antibody, human IgG1, V domains shown, Variable domains only) VL: SYVLTQPPSVSVAPGQTARITCGGSNIGSTSVHWYQQKPGQAPVLVVHDDSDRPSGIPERFSGSNSGNTATLTISRVEAGDEADYYCQVRDSSSDHVIFGGGTKLTVLGQPKAAPSVTL VH: EVQLLESGGGLVQPGGSLRLSCAASEFTFGSYVMTWVRQAPGKGLEWVSVISGSGGSTYYADSVKGRFTISRDNSKNTLYLTMNSLRAEDTAVYYCAKTPWWLRSPFFDYWGQGTLVTVSS"
,2650 MFI,6920 MFI,0.163 nM,,1.31 nM,0.13 nM,,,,,"HL161AN variant No. 6 (LC:N25S, HC:C32S Q82S) (antibody, human IgG1, V domains shown, Variable domains only) VL: SYVLTQPPSVSVAPGQTARITCGGSNIGSTSVHWYQQKPGQAPVLVVHDDSDRPSGIPERFSGSNSGNTATLTISRVEAGDEADYYCQVRDSSSDHVIFGGGTKLTVLGQPKAAPSVTL VH: EVQLLESGGGLVQPGGSLRLSCAASEFTFGSSVMTWVRQAPGKGLEWVSVISGSGGSTYYADSVKGRFTISRDNSKNTLYLSMNSLRAEDTAVYYCAKTPWWLRSPFFDYWGQGTLVTVSS"
0.3 nM,2640 MFI,6750 MFI,0.169 nM,0.249 nM,1.3 nM,0.22 nM,0.000538 s⁻¹,3.19e+06 M⁻¹ s⁻¹,0.000566 s⁻¹,2.27e+06 M⁻¹ s⁻¹,"HL161AN variant No. 17 (LC:N25Q, HC:C32S Q82S) (antibody, human IgG1, V domains shown, Variable domains only) VL: SYVLTQPPSVSVAPGQTARITCGGQNIGSTSVHWYQQKPGQAPVLVVHDDSDRPSGIPERFSGSNSGNTATLTISRVEAGDEADYYCQVRDSSSDHVIFGGGTKLTVLGQPKAAPSVTL VH: EVQLLESGGGLVQPGGSLRLSCAASEFTFGSSVMTWVRQAPGKGLEWVSVISGSGGSTYYADSVKGRFTISRDNSKNTLYLSMNSLRAEDTAVYYCAKTPWWLRSPFFDYWGQGTLVTVSS"
0.36 nM,2570 MFI,6540 MFI,0.265 nM,0.279 nM,1.1 nM,0.33 nM,0.000601 s⁻¹,2.27e+06 M⁻¹ s⁻¹,0.000513 s⁻¹,1.84e+06 M⁻¹ s⁻¹,"HL161AN variant No. 15 (LC:N25Q, HC:Q82T) (antibody, human IgG1, V domains shown, Variable domains only) VL: SYVLTQPPSVSVAPGQTARITCGGQNIGSTSVHWYQQKPGQAPVLVVHDDSDRPSGIPERFSGSNSGNTATLTISRVEAGDEADYYCQVRDSSSDHVIFGGGTKLTVLGQPKAAPSVTL VH: EVQLLESGGGLVQPGGSLRLSCAASEFTFGSCVMTWVRQAPGKGLEWVSVISGSGGSTYYADSVKGRFTISRDNSKNTLYLTMNSLRAEDTAVYYCAKTPWWLRSPFFDYWGQGTLVTVSS"
0.21 nM,2550 MFI,6620 MFI,0.152 nM,0.187 nM,1.28 nM,,,,,,"HL161AN variant No. 7 (LC:N25S, HC:C32S Q82T) (antibody, human IgG1, V domains shown, Variable domains only) VL: SYVLTQPPSVSVAPGQTARITCGGSNIGSTSVHWYQQKPGQAPVLVVHDDSDRPSGIPERFSGSNSGNTATLTISRVEAGDEADYYCQVRDSSSDHVIFGGGTKLTVLGQPKAAPSVTL VH: EVQLLESGGGLVQPGGSLRLSCAASEFTFGSSVMTWVRQAPGKGLEWVSVISGSGGSTYYADSVKGRFTISRDNSKNTLYLTMNSLRAEDTAVYYCAKTPWWLRSPFFDYWGQGTLVTVSS"
0.27 nM,2690 MFI,6300 MFI,0.156 nM,0.24 nM,1.47 nM,,,,,,"HL161AN variant No. 4 (LC:N25S, HC:Q82T) (antibody, human IgG1, V domains shown, Variable domains only) VL: SYVLTQPPSVSVAPGQTARITCGGSNIGSTSVHWYQQKPGQAPVLVVHDDSDRPSGIPERFSGSNSGNTATLTISRVEAGDEADYYCQVRDSSSDHVIFGGGTKLTVLGQPKAAPSVTL VH: EVQLLESGGGLVQPGGSLRLSCAASEFTFGSCVMTWVRQAPGKGLEWVSVISGSGGSTYYADSVKGRFTISRDNSKNTLYLTMNSLRAEDTAVYYCAKTPWWLRSPFFDYWGQGTLVTVSS"
0.43 nM,2540 MFI,6210 MFI,0.271 nM,0.272 nM,1.74 nM,0.33 nM,0.000556 s⁻¹,2.05e+06 M⁻¹ s⁻¹,0.000504 s⁻¹,1.86e+06 M⁻¹ s⁻¹,"HL161AN variant No. 16 (LC:N25Q, HC:Q82E) (antibody, human IgG1, V domains shown, Variable domains only) VL: SYVLTQPPSVSVAPGQTARITCGGQNIGSTSVHWYQQKPGQAPVLVVHDDSDRPSGIPERFSGSNSGNTATLTISRVEAGDEADYYCQVRDSSSDHVIFGGGTKLTVLGQPKAAPSVTL VH: EVQLLESGGGLVQPGGSLRLSCAASEFTFGSCVMTWVRQAPGKGLEWVSVISGSGGSTYYADSVKGRFTISRDNSKNTLYLEMNSLRAEDTAVYYCAKTPWWLRSPFFDYWGQGTLVTVSS"
,2660 MFI,6750 MFI,0.177 nM,0.245 nM,1.43 nM,0.16 nM,,,,,"HL161AN variant No. 9 (LC:N25S, HC:C32Y Q82S) (antibody, human IgG1, V domains shown, Variable domains only) VL: SYVLTQPPSVSVAPGQTARITCGGSNIGSTSVHWYQQKPGQAPVLVVHDDSDRPSGIPERFSGSNSGNTATLTISRVEAGDEADYYCQVRDSSSDHVIFGGGTKLTVLGQPKAAPSVTL VH: EVQLLESGGGLVQPGGSLRLSCAASEFTFGSYVMTWVRQAPGKGLEWVSVISGSGGSTYYADSVKGRFTISRDNSKNTLYLSMNSLRAEDTAVYYCAKTPWWLRSPFFDYWGQGTLVTVSS"
